In patent US20230043577:

Assays:
Assay in all cases: EMSA
[1] = test system: MeCP2 MBD R133C R133C (Homo sapiens); details: same buffer
[2] = target: MeCP2 MBD (hMeCP2[90-181]) wild type (Homo sapiens) (UniProt P51608)
[3] = test system: MeCP2 MBD S134C S134C (Homo sapiens); details: same buffer
[4] = unmodified C in CpG of one strand, 5hmC in the other
[5] = 5hmC in CpG of one strand, 5fC in the other
[6] = 5mC in CpG of one strand, 5fC in the other
[7] = 5mC in CpG of one strand, 5hmC in the other

MeCP2 MBD (hMeCP2[90-181]) wild type (Homo sapiens), sequence (P51608 90-181): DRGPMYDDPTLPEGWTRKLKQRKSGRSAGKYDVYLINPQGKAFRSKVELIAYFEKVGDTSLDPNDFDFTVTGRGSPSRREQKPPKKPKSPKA

In the case of 24-mer C/hmC CpG duplex, the Kd [1, 4] is reported as 8100 nM, the Kd ([2]; unmodified C in CpG of one strand, 5hmC in the other, same buffer) is reported as 1080 nM and the Kd [3, 4] is reported as 7600 nM.
Substance 24-mer hmC/fC CpG duplex has a Kd [1, 5] of 1630 nM, a Kd ([2]; 5hmC in CpG of one strand, 5fC in the other, same buffer) of 540 nM and a Kd [3, 5] of 4600 nM.
24-mer hmC/hmC CpG duplex gave a Kd ([1]; 5hmC in CpG on both strands) of 2560 nM, a Kd ([2]; 5hmC in CpG on both strands, same buffer) of 970 nM and a Kd ([3]; 5hmC in CpG on both strands) of 7600 nM.
24-mer mC/fC CpG duplex showed a Kd [1, 6] of 540 nM, a Kd ([2]; 5mC in CpG of one strand, 5fC in the other, same buffer) of 197 nM and a Kd [3, 6] of 790 nM.
24-mer mC/hmC CpG duplex gave a Kd [1, 7] of 660 nM, a Kd ([2]; 5mC in CpG of one strand, 5hmC in the other, same buffer) of 224 nM and a Kd [3, 7] of 1150 nM.
24-mer mC/mC CpG duplex was tested, and the Kd ([1]; 5mC in CpG on both strands) was 118 nM, the Kd ([2]; 5mC in CpG on both strands, room temperature, 50 ng/uL poly(dA)poly(dT), 20 mM HEPES pH 7.3 buffer) was 27 nM and the Kd ([3]; 5mC in CpG on both strands) was 117 nM.
